From doi:10.1101/2022.09.16.508217 (bioRxiv, 2022)
Where a chain is given by its changes, count along the chain named. Names and notes keep the numbering of the source.

B1: GST-NIPBL WT (C-terminus of chicken NIPBL, aa 2582-2783, fused to GST) (domain or fragment)
chain: ANSKITEEVKRSIVKQYLDFKLLMEHLDPDEEEEDGEVSASTNARNKAITSLLGGGSPKNNAAETEDDESDGEDRGGGTSGSLRRSKRNSDSTELASQMNESVDVMDVIAICCPKYKDRPQIARVVQKTSNGFSVQWMAGSYSGSWTEAKRRDGRKLVPWVDTIKESDIIYKKIALTSANKLTNKVVQTLRSLYAAKDGTSS
B2: GST-NIPBL pip1 (chicken NIPBL aa 2582-2783 with PIP1 mutated Q2597A,L2599A,F2601A, fused to GST) (domain or fragment)
chain: B1 chain with Q16A, L18A, F20A

Experiments:
[1] = molecular target: chicken N-terminally His-tagged PCNA (recombinant) (chicken, UniProt Q9DEA3 1-262); assay: pull-down
chicken N-terminally His-tagged PCNA (recombinant), sequence (Q9DEA3 whole entry): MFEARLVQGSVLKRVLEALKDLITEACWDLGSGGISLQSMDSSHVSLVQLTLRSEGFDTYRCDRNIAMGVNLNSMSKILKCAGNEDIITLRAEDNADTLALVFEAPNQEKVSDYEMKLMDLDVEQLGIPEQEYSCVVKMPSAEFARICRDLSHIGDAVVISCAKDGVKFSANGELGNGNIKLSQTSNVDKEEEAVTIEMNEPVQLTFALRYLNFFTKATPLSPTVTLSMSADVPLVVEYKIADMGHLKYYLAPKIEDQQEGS

[2] = molecular target: T1, yeast PCNA, N-terminally His-tagged Pol30 (S. cerevisiae, UniProt P15873 1-258); assay: pull-down
T1 sequence: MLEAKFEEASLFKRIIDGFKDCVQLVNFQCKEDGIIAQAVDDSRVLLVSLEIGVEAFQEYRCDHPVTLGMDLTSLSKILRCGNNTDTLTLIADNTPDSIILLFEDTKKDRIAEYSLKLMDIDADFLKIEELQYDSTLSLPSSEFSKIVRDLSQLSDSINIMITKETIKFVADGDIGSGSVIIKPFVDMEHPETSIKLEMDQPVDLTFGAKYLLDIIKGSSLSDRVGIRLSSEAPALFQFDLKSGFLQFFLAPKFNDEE

Binder | binding result [1] | binding result [2]
TNKVVATARSLAAAKDGTSS [GST-NIPBL-pip2 (chicken NIPBL aa 2764-2783 with Q2769A,L2771A,Y2775A, fused to GST)] | binds | –
TNKVVQTLRSLYAAKDGTSS [GST-NIPBL-PIP2 (chicken NIPBL aa 2764-2783 fused to GST)] | binds | –
B1 | binds | –
B2 | binds | –
YSSNGKLLTYFRKHVKDT (domain or fragment) [GSTscc2PIP (GST fused with the last 18 amino acids of yeast Scc2, aa 1476-1493, wild-type PIP)] | – | binds
